Test results: US6806079

Assays:
[1] = molecular target: bovine thyroglobulin (Sigma) (bovine) (UniProt P01267); assay: phage ELISA, 200 µg/ml thyroglobulin coating
[2] = molecular target: Rhesus-D antigen (human) (UniProt Q02161); assay: phage bound to Rh-D positive red blood cells, eluted with citric acid, titred on ampicillin plates; titre prior to selection 1.0 × 10^8
[3] = molecular target: T1, turkey egg-white lysozyme (turkey, UniProt P00703 19-147); assay: heading of the table of deduced sequences
T1 construct: also called turkey egg lysozyme; turkey lysozyme
T1 sequence (P00703 19-147 limits assumed): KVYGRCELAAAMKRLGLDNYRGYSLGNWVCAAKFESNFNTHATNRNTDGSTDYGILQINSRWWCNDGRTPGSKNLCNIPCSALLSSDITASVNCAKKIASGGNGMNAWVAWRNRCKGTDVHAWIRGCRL

Chain of bovine thyroglobulin (Sigma) (bovine) (P01267 20-2769 limits assumed): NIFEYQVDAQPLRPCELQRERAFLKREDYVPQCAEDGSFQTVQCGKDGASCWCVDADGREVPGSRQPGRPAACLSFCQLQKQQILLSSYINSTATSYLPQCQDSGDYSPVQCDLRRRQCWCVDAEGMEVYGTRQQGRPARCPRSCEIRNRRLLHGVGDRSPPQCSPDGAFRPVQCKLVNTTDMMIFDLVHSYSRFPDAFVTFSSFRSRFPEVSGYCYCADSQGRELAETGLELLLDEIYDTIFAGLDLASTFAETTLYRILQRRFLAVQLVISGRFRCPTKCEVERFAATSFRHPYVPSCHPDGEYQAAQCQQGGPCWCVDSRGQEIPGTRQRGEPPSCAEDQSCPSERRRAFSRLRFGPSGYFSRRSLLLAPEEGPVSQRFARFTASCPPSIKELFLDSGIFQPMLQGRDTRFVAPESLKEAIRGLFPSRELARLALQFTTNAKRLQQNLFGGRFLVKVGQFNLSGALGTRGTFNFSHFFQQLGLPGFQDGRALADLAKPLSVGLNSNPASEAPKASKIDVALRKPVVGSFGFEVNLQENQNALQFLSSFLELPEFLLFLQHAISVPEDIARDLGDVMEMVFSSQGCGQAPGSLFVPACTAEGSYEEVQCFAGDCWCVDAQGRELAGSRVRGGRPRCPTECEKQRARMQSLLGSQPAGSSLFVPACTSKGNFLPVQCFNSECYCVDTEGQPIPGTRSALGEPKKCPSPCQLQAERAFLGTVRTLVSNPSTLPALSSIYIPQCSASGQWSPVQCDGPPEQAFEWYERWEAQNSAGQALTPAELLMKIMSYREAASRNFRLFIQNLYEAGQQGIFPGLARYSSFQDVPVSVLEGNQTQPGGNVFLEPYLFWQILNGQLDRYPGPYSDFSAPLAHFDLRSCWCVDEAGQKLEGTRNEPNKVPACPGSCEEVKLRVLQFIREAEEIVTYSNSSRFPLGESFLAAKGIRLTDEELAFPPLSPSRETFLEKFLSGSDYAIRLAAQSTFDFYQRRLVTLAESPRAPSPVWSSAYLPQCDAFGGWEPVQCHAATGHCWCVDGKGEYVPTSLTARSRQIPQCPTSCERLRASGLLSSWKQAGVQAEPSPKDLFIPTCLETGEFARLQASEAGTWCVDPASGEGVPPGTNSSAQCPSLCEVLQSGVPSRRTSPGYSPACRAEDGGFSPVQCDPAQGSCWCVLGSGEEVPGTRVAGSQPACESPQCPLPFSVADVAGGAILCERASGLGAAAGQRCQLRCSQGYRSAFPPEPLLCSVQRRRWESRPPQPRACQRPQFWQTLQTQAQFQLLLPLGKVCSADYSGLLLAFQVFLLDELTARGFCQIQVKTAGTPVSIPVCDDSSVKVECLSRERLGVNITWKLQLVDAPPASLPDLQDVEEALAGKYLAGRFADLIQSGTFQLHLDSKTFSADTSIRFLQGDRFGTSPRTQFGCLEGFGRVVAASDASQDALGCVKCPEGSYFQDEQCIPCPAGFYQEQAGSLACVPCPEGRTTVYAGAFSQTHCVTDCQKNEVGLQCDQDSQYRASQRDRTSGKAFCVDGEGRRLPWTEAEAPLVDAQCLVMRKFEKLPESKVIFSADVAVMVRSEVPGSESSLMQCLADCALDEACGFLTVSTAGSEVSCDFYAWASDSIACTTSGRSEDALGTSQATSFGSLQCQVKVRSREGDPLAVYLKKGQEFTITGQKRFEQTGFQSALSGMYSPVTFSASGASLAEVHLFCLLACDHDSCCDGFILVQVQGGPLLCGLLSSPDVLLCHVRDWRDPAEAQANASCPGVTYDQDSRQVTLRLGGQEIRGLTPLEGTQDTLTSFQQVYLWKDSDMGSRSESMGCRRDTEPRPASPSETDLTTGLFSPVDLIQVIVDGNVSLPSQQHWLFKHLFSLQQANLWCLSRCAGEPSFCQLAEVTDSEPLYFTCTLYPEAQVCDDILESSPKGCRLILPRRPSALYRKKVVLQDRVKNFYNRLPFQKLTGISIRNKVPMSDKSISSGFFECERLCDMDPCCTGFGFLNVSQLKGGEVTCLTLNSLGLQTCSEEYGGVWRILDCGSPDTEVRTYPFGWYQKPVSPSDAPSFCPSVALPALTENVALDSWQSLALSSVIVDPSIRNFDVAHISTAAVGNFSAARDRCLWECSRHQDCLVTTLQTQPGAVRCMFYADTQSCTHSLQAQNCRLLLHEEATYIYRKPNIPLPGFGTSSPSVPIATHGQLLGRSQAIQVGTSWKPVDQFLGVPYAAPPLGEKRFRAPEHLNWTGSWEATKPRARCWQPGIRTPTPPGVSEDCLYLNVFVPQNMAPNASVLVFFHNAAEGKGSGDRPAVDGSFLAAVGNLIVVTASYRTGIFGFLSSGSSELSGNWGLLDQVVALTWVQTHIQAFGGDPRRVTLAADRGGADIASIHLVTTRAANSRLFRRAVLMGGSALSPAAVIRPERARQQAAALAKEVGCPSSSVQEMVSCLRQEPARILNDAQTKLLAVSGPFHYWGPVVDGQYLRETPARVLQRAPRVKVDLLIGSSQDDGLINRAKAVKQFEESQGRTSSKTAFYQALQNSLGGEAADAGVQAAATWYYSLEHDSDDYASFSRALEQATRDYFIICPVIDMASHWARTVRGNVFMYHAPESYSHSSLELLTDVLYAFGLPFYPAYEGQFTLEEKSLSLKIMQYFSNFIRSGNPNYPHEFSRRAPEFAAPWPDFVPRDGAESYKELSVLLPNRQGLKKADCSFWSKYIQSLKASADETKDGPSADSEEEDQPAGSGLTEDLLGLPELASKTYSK
Chain of Rhesus-D antigen (human) (Q02161 2-417): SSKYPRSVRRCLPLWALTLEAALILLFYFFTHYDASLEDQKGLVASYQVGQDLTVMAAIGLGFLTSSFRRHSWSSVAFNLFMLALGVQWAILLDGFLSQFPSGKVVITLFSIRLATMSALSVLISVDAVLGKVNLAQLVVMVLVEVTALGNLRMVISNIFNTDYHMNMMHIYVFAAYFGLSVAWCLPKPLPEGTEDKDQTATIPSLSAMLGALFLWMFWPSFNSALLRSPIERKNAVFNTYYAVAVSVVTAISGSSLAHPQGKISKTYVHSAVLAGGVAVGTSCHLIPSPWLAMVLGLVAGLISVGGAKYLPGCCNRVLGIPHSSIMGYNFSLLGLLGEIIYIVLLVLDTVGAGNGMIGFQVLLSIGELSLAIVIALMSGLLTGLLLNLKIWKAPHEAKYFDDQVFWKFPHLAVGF

“phage control (vector pCAT3) (from UniProt P03661 19-424)” showed an ELISA OD [1] of 0.07 O.D.

Molecule “Fog-B Fab fragment displayed on the surface of phage (pHEN1)” has a titre of phage eluted after selection on Rh-D positive cells [2] of 6e+06.

B1: Lysozyme binder VH14.1 / VL14.1 (scFv, V domains shown)
VH: QVQLQESGPGLVKPSETLSLVCTVSGGSLSFSYWGWIRQPPGKGLEWIGYISHRGTDYNSSLQSRVTISADTSKNQFSLKLSSVTAADTAVYYCARSFSNSFFFGYWGQGT
VL: SSELTQDPAVSVAFGQTVRITCQGDSLRSSYASWYQQKPGQAPLLVIYGENSRPSGIPDRFSGSSSGNTASLTITGAQAEDEADYYCNSRDSRGTHLEVFGG
notes: Human scFv in pHEN1 on phage; Paired by common number
B1: binds [3].
